No end group written: not given here.
What was measured:
[1] = target: recombinant human PALS1 PDZ (residues 255-336) (Homo sapiens, UniProt Q8N3R9); assay: biochemical; assay type: binding
[2] = target: SARS-CoV-2 E protein C-terminal PBM (Severe acute respiratory syndrome coronavirus 2) (UniProt P0DTC4); conditions: cited from earlier work
[3] = target: SARS-CoV-1 E protein C-terminal PBM (Severe acute respiratory syndrome coronavirus) (UniProt P59637); conditions: cited from earlier work
[4] = target: SARS-CoV-2 E protein PBM (Severe acute respiratory syndrome coronavirus 2); assay: ITC
[5] = target: SARS-CoV-1 E protein PBM (Severe acute respiratory syndrome coronavirus); assay: ITC

SRVPDLLV [SARS-CoV-1 PBM]
Kd [1]: 29.6 ± 2.3 µM

EGVPDLLV [SARS-CoV-2 PBM]
Kd [1]: 22.8 ± 1.2 µM

PALS1 PDZ (from UniProt Q8N3R9)
Kd [2]: 40 µM
Kd [3]: 130 µM

B1: PALS1 255-336, Q8N3R9 (protein)
chain: KIVRIEKARDIPLGATVRNEMDSVIISRIVKGGAAEKSGLLHEGDEVLEINGIEIRGKDVNEVFDLLSDMHGTLTFVLIPSQ
Kd [4]: 22.8 µM
Kd [5]: 29.6 µM
